Experiments:
[1] = biological target: T1, Aβ1-42 fibrils (Aβ1-42 peptide, Bachem H-1368) (UniProt P05067 672-713); experiment: SPR (Biacore T200), scFv-IgG flowed over amine-coupled Aβ1-42 fibrils, 1:1 fit, apparent KD
T1 construct: domain: Aβ1-42; Fibrils were immobilized on the sensor chip by amine coupling, so this is a multimeric aggregate; also called fibrillar Aβ1-42; immobilized Aβ1-42 fibrils

[2] = biological target: T1, Aβ1-42 fibrils (Aβ1-42 peptide, Bachem …); experiment: SPR (Biacore T200): Aβ1-42 fibrils immobilised on the sensor chip by amine coupling, scFv-IgG injected at 5-50 nM, global fit to a 1:1 binding model
[3] = biological target: T1, Aβ1-42 fibrils (Aβ1-42 peptide, Bachem …); experiment: SPR (Biacore T200), antibody flowed over amine-coupled Aβ1-42 fibrils, 1:1 fit, apparent KD
[4] = biological target: T1, Aβ1-42 fibrils (Aβ1-42 peptide, Bachem …); experiment: SPR (Biacore T200): Aβ1-42 fibrils immobilised on the sensor chip by amine coupling, antibody injected at 5-50 nM, global fit to a 1:1 binding model

T1 sequence (P05067 672-713 limits assumed): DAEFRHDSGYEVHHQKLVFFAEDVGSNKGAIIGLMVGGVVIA

Binder | Kd [1] [nM] | Kd [2] [nM] | Kd [3] [nM] | Kd [4] [nM]
anti-Aβ scFv-IgG (Fc fusion, Disulfide-linked homodimer; For SPR the protein was expressed in Expi293 cells and purified by IMAC; also called silent scFv-IgG; AAV-scFv-IgG (vector-expressed form)) scFv: SEIVMTQTPLSLPVSLGDRASISCRSGQSLVHSNGNTYLHWYLQKPGQSPKLLIYTVSNRFSGVPDRFSGSGSGSDFTLTISRVEAEDLGVYFCSQNTFVPWTFGGGTKLEIKRTSSGGGGSGGGGSGGGGSEVQLQQSGPEVVKPGVSVKISCKGSGYTFTDYAMHWVKQSPGKSLEWIGVISTKYGKTNYNPSFQGQATMTVDKSSSTAYMELASLKASDSAIYYCARGDDGYSWGQGTSVTVSSASTGGGGGGGGGSGVPRDCGCKPCICTVPEVSSVFIFPPKPKDVLTITLTPKVTCVVVDISKDDPEVQFSWFVDDVEVHTAQTQPREEQFASTFRSVSELPIMHQDWLNGKEFKCRVNSAAFPAPIEKTISKTKGRPKAPQVYTIPPPKEQMAKDKVSLTCMITDFFPEDITVEWQWNGQPAENYKNTQPIMDTDGSYFVYSKLNVQKSNWEAGNTFTCSVLHEGLHNHHTEKSLSHSPGSGSGSGSHHHHHH | 0.52 | 0.525 | – | –
parental 13C3 anti-amyloid beta antibody (murine IgG) (antibody, V domains shown, The SPR text says only 'parental IgG' or 'parental antibody'; The scFv-IgG derives from the murine 13C3 antibody (mouse IgG1); also called parental IgG; parental antibody) VH: EVQLQQSGPEVVKPGVSVKISCKGSGYTFTDYAMHWVKQSPGKSLEWIGVISTKYGKTNYNPSFQGQATMTVDKSSSTAYMELASLKASDSAIYYCARGDDGYSWGQGTSVTVSS VL: EIVMTQTPLSLPVSLGDRASISCRSGQSLVHSNGNTYLHWYLQKPGQSPKLLIYTVSNRFSGVPDRFSGSGSGSDFTLTISRVEAEDLGVYFCSQNTFVPWTFGGGTKLEIK | – | – | 0.13 | 0.132
